Results reported in patent US20260242478A1 (published 2026).
Where no end group is shown, it is not given here.

B1: Phage-1966 (peptide)
peptide: WDKWCRPAWMCEST
notes: tested as crude clonal phage supernatant
B2: Phage-1969 (peptide)
peptide: VEKWCKPTWMCEMV
notes: as for B1
B3: Phage-1970 (peptide)
peptide: EFKWCTPSWMCAHL
notes: as for B1
B4: Phage-1967 (peptide)
peptide: DVKMCIPAWMCSFD
notes: as for B1
B5: Phage-1979 (peptide)
peptide: LPKWCTPEWMCIGF
notes: as for B1
B6: Phage-1968 (peptide)
peptide: YIKWCTPSWMCEAS
notes: as for B1
B7: Phage-1974 (peptide)
peptide: LVKWCIPEWMCEVL
notes: as for B1
B8: Phage-1978 (peptide)
peptide: SERWCIPTWMCQET
notes: as for B1
B9: Phage-1977 (peptide)
peptide: MAQWCTPAWMCSGF
notes: as for B1
B10: Phage-1975 (peptide)
peptide: FDNWCKPSWMCAGL
notes: as for B1
B11: Phage-1971 (peptide)
peptide: VMNWCTPVWMCQGF
notes: as for B1
B12: Phage-1980 (peptide)
peptide: LDKWCIPPWMCYSI
notes: as for B1
B13: Phage-1972 (peptide)
peptide: PWHWCIPEWMCAEY
notes: as for B1
B14: Phage-1976 (peptide)
peptide: TMHWCIPQWMCETG
notes: as for B1
B15: Phage-1973 (peptide)
peptide: FDKWCIPEWMCAVL
notes: as for B1
B16: Phage-1953 (peptide)
peptide: PVKWCIPTWMCAPV
modifications: cysteine pairing not given here; also: fused to phage pIII (clonal phage display)

target: T1, Anti-PSMA Fab (SEQ ID NOs: 19, 20); test: phage binding ELISA on captured PSMA Fab; wells pre-incubated with PSMA antigen as competitor
T1 construct: Biotinylated and captured on neutravidin coated plates in the phage ELISA; also called 006 PSMA Fab
Method: (§1) Clonal phage were harvested as crude supernatants and screened via standard ELISAs. […] Prior to the addition of clonal phage. wells were incubated with blocking buffer and PSMA antigen or blocking buffer alone. Without washing or aspirating, clonal phage supernatants were then added to the wells and incubated for a short time. Wells were then washed followed by detection of bound phage using a horse radish conjugated anti-M13 antibody.

| Binder | Anti-PSMA Fab signal in the presence of PSMA |
| --- | --- |
| B1 | 0.0851 |
| B2 | 0.0976 |
| B3 | 0.128 |
| B4 | 0.0712 |
| B5 | 0.113 |
| B6 | 0.113 |
| B7 | 0.0751 |
| B8 | 0.0819 |
| B9 | 0.0721 |
| B10 | 0.0863 |
| B11 | 0.115 |
| B12 | 0.0602 |
| B13 | 0.083 |
| B14 | 0.25 |
| B15 | 0.0682 |

target: T2, Anti-PSMA Fab (SEQ ID NOs: 19, 20); test: phage ELISA; biotinylated PSMA Fab on neutravidin plate, clonal phage supernatant, anti-M13 HRP detection;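 note: wells preincubated with PSMA antigen in blocking buffer or with blocking buffer only before clonal phage were added for a short incubation, then bound phage detected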
T2 construct: In the phage ELISA the Fab was biotinylated and captured on neutravidin coated plates; also called 006 PSMA Fab
Method: as §1

| Binder | Phage binding ELISA, Anti-PSMA Fab signal |
| --- | --- |
| NFHLCTPQWMCTGF (cysteine pairing not given here; also: displayed as fusion to phage pIII, Peptide-180 library clone) [Phage-1997] | 1.86 |
| IPKWCTPAWMCESM (cysteine pairing not given here; also: displayed as fusion to phage pIII, Peptide-180 library clone) [Phage-1999] | 1.86 |
| HEMWCRPAWMCDGF (cysteine pairing not given here; also: displayed as fusion to phage pIII, Peptide-180 library clone) [Phage-2000] | 1.85 |
| IDKWCIPAWMCVSN (cysteine pairing not given here; also: displayed as fusion to phage pIII, Peptide-180 library clone) [Phage-1998] | 1.86 |

target: T3, Anti-PSMA Fab (SEQ ID NOs: 19, 20); test: phage binding ELISA; PSMA Fab on plate pre-incubated with PSMA antigen as competitor, anti-M13 HRP detection;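 note: crude clonal phage supernatants added without washing to wells preincubated with PSMA in blocking buffer, compared with wells receiving blocking buffer only, then bound phage detected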
T3 construct: Biotinylated and captured on neutravidin coated plates in the phage ELISA; also called 006 PSMA Fab
Method: as §1

| Binder | Phage binding ELISA, Anti-PSMA Fab signal in the presence of PSMA |
| --- | --- |
| B16 | 0.0978 |
| EGIWCTPAWMCMGF [Phage-1961] | 0.0798 |
| GEIWCIPPWMCYAP [Phage-1955] | 0.0825 |
| MVKWCKPAWMCDVI [Phage-1965] | 0.078 |
| FAKWCTPVWMCAGL (cysteine pairing not given here; also: displayed as fusion to phage pIII) [Phage-1956] | 0.281 |
| VVKWCLPPWMCTDF [Phage-1962] | 0.0829 |
| LVKWCTPAWMCEFI [Phage-1963] | 0.0856 |
| LENWCIPAWMCSGF [Phage-1957] | 0.0656 |
| DGKWCIPAWMCVDM [Phage-1958] | 0.0672 |
| WDKWCIPEWMCESM [Phage-1959] | 0.0718 |
| LEMWCVPAWMCSGF [Phage-1964] | 0.0771 |
| MPKWCTPAWMCAHQ (cysteine pairing not given here; also: displayed as fusion to phage pIII) [Phage-1952] | 0.0835 |
| AEHWCIPSWMCAGF (cysteine pairing not given here; also: displayed as fusion to phage pIII) [Phage-1951] | 0.104 |
| HEKWCIPEWMCVVT [Phage-1954] | 0.0642 |
| FEKWCIPDWMCQVM [Phage-1960] | 0.0817 |

target: T3, Anti-PSMA Fab (SEQ ID NOs: 19, 20); test: phage binding ELISA; biotinylated PSMA Fab on neutravidin plate, clonal phage supernatant, anti-M13 HRP detection;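 note: wells were preincubated with blocking buffer either containing PSMA antigen or without it before crude phage supernatant was added, briefly incubated, then washed prior to detection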
Method: as §1

| Binder | Phage binding ELISA, Anti-PSMA Fab (SEQ ID NOs: 19, 20) signal |
| --- | --- |
| B16 | 1.92 |
| EGIWCTPAWMCMGF [Phage-1961] | 1.91 |
| GEIWCIPPWMCYAP [Phage-1955] | 1.92 |
| MVKWCKPAWMCDVI [Phage-1965] | 1.91 |
| FAKWCTPVWMCAGL (cysteine pairing not given here; also: displayed as fusion to phage pIII) [Phage-1956] | 1.92 |
| VVKWCLPPWMCTDF [Phage-1962] | 1.91 |
| LVKWCTPAWMCEFI [Phage-1963] | 1.91 |
| LENWCIPAWMCSGF [Phage-1957] | 1.92 |
| DGKWCIPAWMCVDM [Phage-1958] | 1.92 |
| WDKWCIPEWMCESM [Phage-1959] | 1.92 |
| LEMWCVPAWMCSGF [Phage-1964] | 1.91 |
| MPKWCTPAWMCAHQ (cysteine pairing not given here; also: displayed as fusion to phage pIII) [Phage-1952] | 1.93 |
| AEHWCIPSWMCAGF (cysteine pairing not given here; also: displayed as fusion to phage pIII) [Phage-1951] | 1.93 |
| HEKWCIPEWMCVVT [Phage-1954] | 1.92 |
| FEKWCIPDWMCQVM [Phage-1960] | 1.91 |

target: T1, Anti-PSMA Fab (SEQ ID NOs: 19, 20); test: phage binding ELISA; biotinylated PSMA Fab captured on neutravidin plate, clonal phage supernatant, anti-M13 HRP detection
Method: as §1

| Binder | Anti-PSMA Fab (SEQ ID NOs: 19, 20) signal |
| --- | --- |
| B1 | 1.91 |
| B2 | 1.9 |
| B3 | 1.9 |
| B4 | 1.91 |
| B5 | 1.89 |
| B6 | 1.9 |
| B7 | 1.9 |
| B8 | 1.89 |
| B9 | 1.89 |
| B10 | 1.89 |
| B11 | 1.9 |
| B12 | 1.89 |
| B13 | 1.9 |
| B14 | 1.89 |
| B15 | 1.9 |

target: T2, Anti-PSMA Fab (SEQ ID NOs: 19, 20); test: phage ELISA; biotinylated PSMA Fab on neutravidin plate pre-incubated with PSMA antigen (competitor), anti-M13 HRP detection
Method: as §1

| Binder | Phage binding ELISA, Anti-PSMA Fab signal in the presence of PSMA |
| --- | --- |
| NFHLCTPQWMCTGF (cysteine pairing not given here; also: displayed as fusion to phage pIII, Peptide-180 library clone) [Phage-1997] | 0.0973 |
| IPKWCTPAWMCESM (cysteine pairing not given here; also: displayed as fusion to phage pIII, Peptide-180 library clone) [Phage-1999] | 0.0609 |
| HEMWCRPAWMCDGF (cysteine pairing not given here; also: displayed as fusion to phage pIII, Peptide-180 library clone) [Phage-2000] | 0.0635 |
| IDKWCIPAWMCVSN (cysteine pairing not given here; also: displayed as fusion to phage pIII, Peptide-180 library clone) [Phage-1998] | 0.0815 |

target: T4, Anti-PSMA Fab (SEQ ID NOs: 19, 20); test: phage binding ELISA; clonal phage supernatant on biotinylated PSMA Fab captured on neutravidin plate; anti-M13-HRP detection
T4 construct: also called 006 PSMA Fab
Method: as §1

| Binder | Anti-PSMA Fab (SEQ ID NOs: 19, 20) signal |
| --- | --- |
| MDNWCTPSWMCVGF [Phage-1948] | 1.93 |
| ARRSCVFRRGCVFM [Phage-1950] | 1.93 |
| WINWCTPEWMCMGF [Phage-1947] | 1.94 |
| TEMWCKPSWMCYGF [Phage-1946] | 1.94 |
| DIKLCMPEWMCLGF [Phage-1949] | 1.93 |

target: T4, Anti-PSMA Fab (SEQ ID NOs: 19, 20); test: phage binding ELISA; clonal phage supernatant on biotinylated PSMA Fab captured on neutravidin plate, wells pre-incubated with PSMA antigen (competitor: PSMA); anti-M13-HRP detection
Method: as §1

| Binder | Anti-PSMA Fab signal in the presence of PSMA |
| --- | --- |
| MDNWCTPSWMCVGF [Phage-1948] | 0.0794 |
| ARRSCVFRRGCVFM [Phage-1950] | 0.0701 |
| WINWCTPEWMCMGF [Phage-1947] | 0.24 |
| TEMWCKPSWMCYGF [Phage-1946] | 0.101 |
| DIKLCMPEWMCLGF [Phage-1949] | 0.0792 |
